How the values were obtained:
[1] = target: Hyphochytrium catenoides kalium channelrhodopsin 2 (HcKCR2) (Hyphochytrium catenoides); assay: cryo-EM structure
[2] = target: Hyphochytrium catenoides kalium channelrhodopsin 1 (HcKCR1) (Hyphochytrium catenoides); assay: cryo-EM structure

stoichiometry N [1] | stoichiometry N [2] | Substance
3 |  | Hyphochytrium catenoides kalium channelrhodopsin 2 (HcKCR2) (natural protein)
 | 3 | Hyphochytrium catenoides kalium channelrhodopsin 1 (HcKCR1) (natural protein)

From doi:10.1101/2022.11.09.515798
